Experimental data published in publication PMC10663500, “High-throughput analysis system of interaction kinetics for data-driven antibody design” (Scientific Reports, 2023).

Target: T1, human programmed cell death protein 1 C93S (aa 24-167) (Homo sapiens, UniProt Q15116, C93S)
T1 construct: residues of the TEV site may be left after cleavage; also called hPD-1; human PD-1; source: Expi293F, transfected, purified (Protein A, TEV cleavage of Fc, Protein A + Ni-Sepharose, SEC; monomer fractions)
Assay: SPR; BreviA on Carterra LSA: Fab from ammonium sulfate precipitate of Brevibacillus supernatant immobilised on NiHC200M sensor; hPD-1 (1-1024 nM) or mPD-1-Fc (4-1024 nM) as analyte, fourfold dilution series, no regeneration; HBS-EP pH 7.4, 25 °C; medians of spots
Conditions: one partner purified

T1 sequence (Q15116 24-167 C93S): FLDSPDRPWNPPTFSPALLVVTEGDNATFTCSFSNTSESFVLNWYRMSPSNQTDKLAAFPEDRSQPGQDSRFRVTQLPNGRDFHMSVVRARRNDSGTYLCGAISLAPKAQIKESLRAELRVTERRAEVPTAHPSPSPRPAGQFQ

B1: toripalimab Fab (wild-type) (Fab, V domains shown)
VH: QGQLVQSGAEVKKPGASVKVSCKASGYTFTDYEMHWVRQAPIHGLEWIGVIESETGGTAYNQKFKGRVTITADKSTSTAYMELSSLRSEDTAVYYCAREGITTVATTYYWYFDVWGQGTTVTVSS
VL: DVVMTQSPLSLPVTLGQPASISCRSSQSIVHSNGNTYLEWYLQKPGQSPQLLIYKVSNRFSGVPDRFSGSGSGTDFTLKISRVEAEDVGVYYCFQGSHVPLTFGQGTKLEIK
notes: toripalimab Fab heavy chain (VH-CH1); toripalimab Fab light chain (VL-CL); Residue numbers count consecutively from residue 1 of each chain; also called anti-hPD-1 antibody toripalimab; source: Brevibacillus, secreted into culture supernatant, ammonium sulfate precipitate (not further purified); not shown: 6xHis, C-terminal, kept; 6xHN, C-terminal, kept
koff: < 1e-05 s⁻¹
